Sequences and labels used below:
T1: AP-fused Amino-Nogo fragment B4C (a.a. 950-1018) (human, UniProt Q9NQC3 950-1018)
T1 construct: also called AmNg B4C; AP-B4C; not shown: alkaline phosphatase (AP), vector pcAP6
T1 sequence: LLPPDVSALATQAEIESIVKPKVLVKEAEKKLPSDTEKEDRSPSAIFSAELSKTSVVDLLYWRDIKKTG

T2: AP-fused Amino-Nogo fragment B (a.a. 622-1018) (human, UniProt Q9NQC3 622-1018)
T2 construct: also called AmNg B; AP-AmNgB; not shown: alkaline phosphatase (AP), vector pcAP6
T2 sequence: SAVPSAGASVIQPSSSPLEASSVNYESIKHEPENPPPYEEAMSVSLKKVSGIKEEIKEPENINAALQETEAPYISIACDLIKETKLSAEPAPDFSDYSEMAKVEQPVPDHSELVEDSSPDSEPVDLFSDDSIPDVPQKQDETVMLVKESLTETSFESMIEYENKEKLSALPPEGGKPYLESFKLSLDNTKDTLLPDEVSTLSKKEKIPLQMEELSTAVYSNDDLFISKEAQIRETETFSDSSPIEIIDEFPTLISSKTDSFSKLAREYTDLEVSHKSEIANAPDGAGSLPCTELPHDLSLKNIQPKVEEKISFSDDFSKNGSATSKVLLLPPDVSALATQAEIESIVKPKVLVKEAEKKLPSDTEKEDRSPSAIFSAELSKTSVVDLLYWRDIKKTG

T3: AP-fused Amino-Nogo fragment B4 (a.a. 877-1018) (human, UniProt Q9NQC3 877-1018)
T3 construct: also called AmNg B4; AP-B4; not shown: alkaline phosphatase (AP), vector pcAP6
T3 sequence: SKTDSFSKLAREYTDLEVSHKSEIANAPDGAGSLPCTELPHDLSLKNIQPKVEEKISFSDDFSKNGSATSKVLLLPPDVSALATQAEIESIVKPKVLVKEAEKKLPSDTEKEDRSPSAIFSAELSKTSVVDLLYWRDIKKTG

T4: human NgR1 alanine mutant 163 (human, UniProt Q9BZR6 27-473)
T4 sequence: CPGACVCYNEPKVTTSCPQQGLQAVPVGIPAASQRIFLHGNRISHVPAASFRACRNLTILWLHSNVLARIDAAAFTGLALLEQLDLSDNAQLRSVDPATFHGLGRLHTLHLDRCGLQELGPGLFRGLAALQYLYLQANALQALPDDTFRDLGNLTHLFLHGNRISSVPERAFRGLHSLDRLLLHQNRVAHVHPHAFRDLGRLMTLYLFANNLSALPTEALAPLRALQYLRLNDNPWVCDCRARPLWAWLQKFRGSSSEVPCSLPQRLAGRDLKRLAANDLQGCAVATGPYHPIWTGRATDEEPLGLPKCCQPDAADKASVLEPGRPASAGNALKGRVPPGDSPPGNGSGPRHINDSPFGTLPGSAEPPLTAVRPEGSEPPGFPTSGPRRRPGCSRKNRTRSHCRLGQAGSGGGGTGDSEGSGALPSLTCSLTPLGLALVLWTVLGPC

T5: human NgR1 alanine mutant 232, 234 (human, UniProt Q9BZR6 27-473)
T5 sequence: T4 sequence with A137D, Y206A, F208A

T6: human NgR1 alanine mutant 82, 179 (human, UniProt Q9BZR6 27-473)
T6 sequence: T4 sequence with N56A, A137D, N153A

T7: human NgR1 alanine mutant 182, 186 (human, UniProt Q9BZR6 27-473)
T7 sequence: T4 sequence with A137D, H156A, H160A

T8: human NgR1 alanine mutant 158, 160 (human, UniProt Q9BZR6 27-473)
T8 sequence: T4 sequence with Y132A, Y134A, A137D

T9: human NgR1 alanine mutant 133, 136 (human, UniProt Q9BZR6 27-473)
T9 sequence: T4 sequence with H107A, H110A, A137D

T10: NgR expressed on COS-7 cells (species not stated)
T10 chain: T4 sequence with A137D

B1: NgR expressed on COS-7 cells (species not stated) (receptor)
chain: T4 sequence with A137D
B2: AP fusion protein with the B4C fragment of Amino-Nogo-A fused directly to Nogo-66 (ligand)
chain: LLPPDVSALATQAEIESIVKPKVLVKEAEKKLPSDTEKEDRSPSAIFSAELSKTSVVDLLYWRDIKKTGRIYKGVIQAIQKSDEGHPFRAYLESEVAISEELVQKYSNSALGHVNCTIKELRRLFLVDDLVDSLK
notes: domain: Nogo-66; also called AP-B4C66; AP-B4C-66; not shown: alkaline phosphatase (AP), vector pcAP6

Residue numbers refer to the chain shown, from its start. In names and notes the source's numbering stands.

The target in assay [1] is T1, AP-fused Amino-Nogo fragment B4C (a.a. …). In words: AP fusion on NgR-expressing COS-7 cells. The source says:
(§1) Several alkaline phosphatase (AP) fusion proteins containing various Nogo-A segments derived from regions between the amino terminus and the first hydrophobic segment were examined to identify the mechanism of Amino-Nogo-A action. To generate additional AP fusion proteins, human amino Nogo fragments were amplified and ligated to the pcAP6 vector digested with restriction enzymes EcoRI and XhoI as described (Fournier, A. E., et al., Nature 409:341-346 (2001)). Plasmids were then transfected into HEK293T cells and conditioned media were collected after 7 days. None of these fragments bind with high affinity to non-transfected COS-7 cells. […] This binding is saturable with a Kd indistinguishable from that for AP-Nogo-66 association with NgR (Table I). To better define the region responsible for Amino-Nogo interaction with NgR, a range of truncation mutants of Amino-Nogo were examined as AP fusion proteins.
(§2) Binding Kds for AP fused Amino-Nogo fragments were measured by applying conditioned media containing AP fusion protein to NgR expressing COS-7 cells. Bound AP was stained and measured.

Assay [2] addresses T2, AP-fused Amino-Nogo fragment B (a.a. …). In words: AP fusion on NgR-expressing COS-7 cells.
Excerpt: as §1, §2

Assay [3] addresses B2. In words: AP fusion on NgR-expressing COS-7 cells.
Excerpt: as §1, §2

The target of assay [4] is T3, AP-fused Amino-Nogo fragment B4 (a.a. …). In words: AP fusion on NgR-expressing COS-7 cells.
Excerpt: as §1, §2

The target of assay [5] is T4, human NgR1 alanine mutant 163. In words: AP-ligand binding, COS-7.
For assay [6], the target named is T5, human NgR1 alanine mutant 232, 234. In words: AP-ligand binding, COS-7.
In assay [7] the target is T6, human NgR1 alanine mutant 82, 179. In words: AP-ligand binding, COS-7.
For assay [8], the target named is T7, human NgR1 alanine mutant 182, 186. In words: AP-ligand binding, COS-7.
For assay [9], the target named is T8, human NgR1 alanine mutant 158, 160. In words: AP-ligand binding, COS-7.
Assay [10] has as its target T9, human NgR1 alanine mutant 133, 136. In words: AP-ligand binding, COS-7.
Assay [11] addresses T10, NgR expressed on COS-7 cells (species …). In words: AP-ligand binding to NgR-expressing COS-7 cells (Scatchard).

Results on two molecules are retold here after patent US20090111753A1, “Nogo-A Polypeptide Fragments, Variant Nogo Receptor-1 Polypeptides, and Uses Thereof” (Yale University, priority 2004, published 2009).

In general, Kd refers to the concentration at which binding is half-saturated. Low readings indicate a tighter complex, high ones a looser complex. B1: the Kd in [1] is 3.51 nM; in [2], 6.66 nM; in assay [3], under 1 nM; in assay [4] it was 9.01 nM.

With B2, the binding result in [5], in assay [6], in [7], in assay [8], in [9] and in assay [10] was “no binding” in each case. The molecule also showed a Kd in assay [11] of 0.42 nM.
